In US20250326839A1 (VIGIL NEUROSCIENCE, published 2025):
Where a chain is given by its changes, count along the chain named.

T1: human TREM2 (human, UniProt Q9NZC2 19-174, limits assumed)
T1 construct: also called triggering receptor expressed on myeloid cells 2
T1 sequence: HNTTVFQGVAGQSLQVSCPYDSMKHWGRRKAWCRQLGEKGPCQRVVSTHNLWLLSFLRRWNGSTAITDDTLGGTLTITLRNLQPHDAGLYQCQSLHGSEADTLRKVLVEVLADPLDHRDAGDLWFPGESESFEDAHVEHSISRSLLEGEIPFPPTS

B1: V2 (antibody, V domains shown)
VH: EVQLVQSGAEVKKPGESLKISCKGSGSSFTSYWIAWVRQMPGKGLEWMGIIYPGDGDTRYSPSFQGQVTISADKSISTAYLQWSSLKASDTAMYFCARSRTFYYDSSDYFDYWGQGTLVTVSS
VL: DIQMTQSPSSVSASVGDRVTITCRASQGISSWLAWYQQKPGKAPKLLIYAASSRQNGVPSRFSGSGSGTDFTLTISSLQPEDFATYFCQQADRFPRTFGQGTKLEIK
notes: also called 6E7 variant V2
B2: V48 (antibody, V domains shown)
VH: B1 VH with S27Y, T30G, G56S, T58V, S99M
VL: B1 VL with R54L, N56T, R93S, F94L
notes: also called 6E7 variant V48
B3: V16 (antibody, V domains shown)
VH: B1 VH with S27Y, F29M
VL: B1 VL with S53N, R54L, R93S
notes: also called 6E7 variant V16
B4: V41 (antibody, V domains shown)
VH: B1 VH with S27Y, I50T, G56S, S99Q
VL: B1 VL with R54L, R93S
notes: also called 6E7 variant V41
B5: V28 (antibody, V domains shown)
VH: B1 VH with S27Y, T30Q, I50T, G56S, S99Q, Y103F
VL: B1 VL with R54L, N56S, R93S, F94L
notes: also called 6E7 variant V28
B6: V50 (antibody, V domains shown)
VH: B1 VH with S27Y, T30G, I50V, G56S, S99Q, F110L
VL: B1 VL with R93S, F94L
notes: also called 6E7 variant V50
B7: V27 (antibody, V domains shown)
VH: B1 VH with S27Y, G56S, S61A, A97V
VL: B1 VL with R54L, N56R, R93S
notes: also called 6E7 variant V27; LV-103/HV-103
B8: V4 (antibody, V domains shown)
VH: B1 VH with S27Y, T30G, G56S, Y60V
VL: B1 VL with S53R, R54L, R93S, F94Y
notes: also called 6E7 variant V4
B9: V14 (antibody, V domains shown)
VH: B1 VH with S27Y, T30G, G56Q, S99G
VL: B1 VL with S53R, R54L, R93S
notes: also called 6E7 variant V14
B10: V39 (antibody, V domains shown)
VH: B1 VH with S27Y, T30G, G56S, S61N, S99G
VL: B1 VL with R54L, Q55V, R93S, F94S
notes: also called 6E7 variant V39
B11: V26 (antibody, V domains shown)
VH: B1 VH with S27Y, A35G, I50T, G56S, S99Q, F102M, Y112A
VL: B1 VL with R54L, N56R, R93S, F94Y
notes: also called 6E7 variant V26
B12: V25 (antibody, V domains shown)
VH: B1 VH with S27Y, T30G, I50L, G56S
VL: B1 VL with R54L, Q55A, R93S, F94M
notes: also called 6E7 variant V25
B13: V49 (antibody, V domains shown)
VH: B1 VH with S27Y, T30N, I50T, G56S, Y60L
VL: B1 VL with R93S, F94Y
notes: also called 6E7 variant V49; LV-106/HV-106
B14: V29 (antibody, V domains shown)
VH: B1 VH with S27Y, T30K, G56S, S99Q
VL: B1 VL with R54L, R93S
notes: also called 6E7 variant V29
B15: V15 (antibody, V domains shown)
VH: B1 VH with S27Y, T30A, I50T, G56S
VL: B1 VL with S53W, R54L, R93S, F94Y
notes: also called 6E7 variant V15
B16: V38 (antibody, V domains shown)
VH: B1 VH with S27Y, T30G, G56S, T58V, S99Q
VL: B1 VL with R93S, F94H
notes: also called 6E7 variant V38
B17: V40 (antibody, V domains shown)
VH: B1 VH with S27Y, T30G, G56S, T58V, S99Q, F110S
VL: B1 VL with R54L, N56L
notes: also called 6E7 variant V40
B18: V52 (antibody, V domains shown)
VH: B1 VH with S27Y, T30E, G56S, S99G
VL: B1 VL with R54L, N56R
notes: also called 6E7 variant V52; LV-107/HV-107
B19: V51 (antibody, V domains shown)
VH: B1 VH with S27Y, G56S, T58V, S99G, Y112N
VL: B1 VL with R93S
notes: also called 6E7 variant V51
B20: V5 (antibody, V domains shown)
VH: B1 VH with S27Y, I50T, G56S, S99Q
VL: B1 VL with R54L, R93S, F94H
notes: also called 6E7 variant V5
B21: V24 (antibody, V domains shown)
VH: B1 VH with S27Y, G56S, T58V
VL: B1 VL with R54L, N56K, R93S, R96H
notes: also called 6E7 variant V24
B22: V36 (antibody, V domains shown)
VH: B1 VH with S27Y, I34L, G56S
VL: B1 VL with R93S, F94Y
notes: also called 6E7 variant V36
B23: V37 (antibody, V domains shown)
VH: B1 VH with S27Y, F29H, G56S, Q65A
VL: B1 VL with R54L, N56W, R93S, F94Y
notes: also called 6E7 variant V37
B24: V3 (antibody, V domains shown)
VH: B1 VH with S27Y, T30A, G56S, G66D, S99G
VL: B1 VL
notes: also called 6E7 variant V3; LV-101/HV-101
B25: V17 (antibody, V domains shown)
VH: B1 VH with S27Y, T30G, G56S
VL: B1 VL with R93S, F94S
notes: also called 6E7 variant V17
B26: V13 (antibody, V domains shown)
VH: B1 VH with S27Y, T30G, G56S, P62A, S99G
VL: B1 VL with R54L, N56G, R93S, F94M
notes: also called 6E7 variant V13

What follows are binders tested against T1, human TREM2 (assay: 2nd screen, 2 nM).

| Binding Signal | Binder |
| --- | --- |
| 2.23 fold over 6E7 parental antibody | B1 |
| 2.3 fold over 6E7 parental antibody | B2 |
| 3.57 fold over 6E7 parental antibody | B3 |
| 0.58 fold over 6E7 parental antibody | B4 |
| 2.63 fold over 6E7 parental antibody | B5 |
| 3.39 fold over 6E7 parental antibody | B6 |
| 5.67 fold over 6E7 parental antibody | B7 |
| 5.88 fold over 6E7 parental antibody | B8 |
| 2.57 fold over 6E7 parental antibody | B9 |
| 5.11 fold over 6E7 parental antibody | B10 |
| 2.83 fold over 6E7 parental antibody | B11 |
| 3.15 fold over 6E7 parental antibody | B12 |
| 5.02 fold over 6E7 parental antibody | B13 |
| 0.84 fold over 6E7 parental antibody | B14 |
| 4.72 fold over 6E7 parental antibody | B15 |
| 3.44 fold over 6E7 parental antibody | B16 |
| 3.41 fold over 6E7 parental antibody | B17 |
| 1.78 fold over 6E7 parental antibody | B18 |
| 1.83 fold over 6E7 parental antibody | B19 |
| 1.25 fold over 6E7 parental antibody | B20 |
| 1.42 fold over 6E7 parental antibody | B21 |
| 4 fold over 6E7 parental antibody | B22 |
| 3.69 fold over 6E7 parental antibody | B23 |
| 1.95 fold over 6E7 parental antibody | B24 |
| 4.22 fold over 6E7 parental antibody | B25 |
| 1.15 fold over 6E7 parental antibody | B26 |

The binders below were run against T1, human TREM2 (assay: 2nd screen, 10 nM).

| Binding Signal | Binder |
| --- | --- |
| 2.9 fold over 6E7 parental antibody | B1 |
| 2.54 fold over 6E7 parental antibody | B2 |
| 4.04 fold over 6E7 parental antibody | B3 |
| 1.72 fold over 6E7 parental antibody | B4 |
| 3.61 fold over 6E7 parental antibody | B5 |
| 4.16 fold over 6E7 parental antibody | B6 |
| 5.69 fold over 6E7 parental antibody | B7 |
| 5.51 fold over 6E7 parental antibody | B8 |
| 4.64 fold over 6E7 parental antibody | B9 |
| 5.81 fold over 6E7 parental antibody | B10 |
| 3.47 fold over 6E7 parental antibody | B11 |
| 4.7 fold over 6E7 parental antibody | B12 |
| 6.58 fold over 6E7 parental antibody | B13 |
| 1.67 fold over 6E7 parental antibody | B14 |
| 4.78 fold over 6E7 parental antibody | B15 |
| 4.36 fold over 6E7 parental antibody | B16 |
| 4.16 fold over 6E7 parental antibody | B17 |
| 3.09 fold over 6E7 parental antibody | B18 |
| 3.18 fold over 6E7 parental antibody | B19 |
| 2.84 fold over 6E7 parental antibody | B20 |
| 2.9 fold over 6E7 parental antibody | B21 |
| 3.44 fold over 6E7 parental antibody | B22 |
| 3.49 fold over 6E7 parental antibody | B23 |
| 2.24 fold over 6E7 parental antibody | B24 |
| 5.51 fold over 6E7 parental antibody | B25 |
| 1.35 fold over 6E7 parental antibody | B26 |

The binders below were run against T1, human TREM2 (assay: 1st screen, 10 nM Ab).

| Binding Signal | Binder |
| --- | --- |
| 2.55 fold over 6E7 parental antibody | B1 |
| 2.42 fold over 6E7 parental antibody | B2 |
| 4.01 fold over 6E7 parental antibody | B3 |
| 1.74 fold over 6E7 parental antibody | B4 |
| 3.08 fold over 6E7 parental antibody | B5 |
| 4.1 fold over 6E7 parental antibody | B6 |
| 5.5 fold over 6E7 parental antibody | B7 |
| 6 fold over 6E7 parental antibody | B8 |
| 4.71 fold over 6E7 parental antibody | B9 |
| 6.15 fold over 6E7 parental antibody | B10 |
| 3.57 fold over 6E7 parental antibody | B11 |
| 4.23 fold over 6E7 parental antibody | B12 |
| 6.51 fold over 6E7 parental antibody | B13 |
| 1.53 fold over 6E7 parental antibody | B14 |
| 5.23 fold over 6E7 parental antibody | B15 |
| 4.34 fold over 6E7 parental antibody | B16 |
| 4.48 fold over 6E7 parental antibody | B17 |
| 3 fold over 6E7 parental antibody | B18 |
| 2.81 fold over 6E7 parental antibody | B19 |
| 2.73 fold over 6E7 parental antibody | B20 |
| 2.64 fold over 6E7 parental antibody | B21 |
| 3.38 fold over 6E7 parental antibody | B22 |
| 3.46 fold over 6E7 parental antibody | B23 |
| 1.97 fold over 6E7 parental antibody | B24 |
| 5.37 fold over 6E7 parental antibody | B25 |
| 1.31 fold over 6E7 parental antibody | B26 |
